Test results as given in paper PMC7793593 (Science Advances, 2021).

B1: HAdV-F41 hexon protein (natural protein, human adenovirus F41 (strain Tak))
chain: MATPSMMPQWSYMHIAGQDASEYLSPGLVQFARATDTYFSLGNKFRNPTVAPTHDVTTDRSQRLTLRFVPVDREDTAYSYKVRFTLAVGDNRVLDMASTYFDIRGVLDRGPSFKPYSGTAYNSLAPKTAPNPCEWKDNNKIKVRGQAPFIGTNINKDNGIQIGTDTTNQPIYADKTYQPEPQVGQTQWNSEVGAAQKVAGRVLKDTTPMLPCYGSYAKPTNEKGGQASLITNGTDQTLTSDVNLQFFALPSTPNEPKAVLYAENVSIEAPDTHLVYKPDVAQGTISSADLLTQQAAPNRPNYIGFRDNFIGLMYYNSTGNMGVLAGQASQLNAVVDLQDRNTELSYQLMLDALGDRSRYFSMWNQAVDSYDPDVRIIENHGVEDELPNYCFPLGGSAATDTYSGIKANGQTWTADDNYADRGAEIESGNIFAMEINLAANLWRSFLYSNVALYLPDSYKITPDNITLPENKNTYAYMNGRVAVPSALDTYVNIGARWSPDPMDNVNPFNHHRNAGLRYRSMLLGNGRYVPFHIQVPQKFFAIKNLLLLPGSYTYEWNFRKDVNMILQSSLGNDLRVDGASVRFDSINLYANFFPMAHNTASTLEAMLRNDTNDQSFNDYLCAANMLYPIPSNATSVPISIPSRNWAAFRGWSFTRLKTKETPSLGSGFDPYFTYSGSVPYLDGTFYLNHTFKKVSIMFDSSVSWPGNDRLLTPNEFEIKRTVDGEGYNVAQCNMTKDWFLIQMLSHYNIGYQGFYVPESYKDRMYSFFRNFQPMSRQVVNTTTYKEYQNVTLPFQHNNSGFVGYMGPTMREGQAYPANYPYPLIGQTAVPSLTQKKFLCDRTMWRIPFSSNFMSMGALTDLGQNMLYANSAHALDMTFEVDPMDEPTLLYVLFEVFDVVRIHQPHRGVIEAVYLRTPFSAGNATT

Columns and labels:
Assay in all cases: cryo-EM structure
[1] = molecular target: HAdV-F41 penton base protein, virion-bound (human adenovirus F41 (strain Tak))
cryo-EM structure = molecular target: the molecule itself
HAdV-F41 hexon protein = molecular target: B1

Row | Molecule | stoichiometry N [1] | stoichiometry N (cryo-EM structure) | binding result (HAdV-F41 hexon protein)
1 | HAdV-F41 penton base protein, virion-bound (natural protein) | 5 |  | 
2 | B1 |  | 3 | 
3 | HAdV-F41 capsid protein IX (natural protein, human adenovirus F41 (strain Tak), UniProt P32539 1-133, looked up) MSGSMEGNAVSFKGGVFSPYLTTRLPAWAGVRQNVMGSNVDGRPVAPANSATLTYATVGSSVDTAAAAAASAAASTARGMAADFGLYNQLAASRSLREEDALSVVLTRMEELSQQLQDLFAKVALLNPPANAS |  | 3 | binds
